In the supplement of paper PMC10126150:
± gives the standard deviation of the averaged measurements.

system: ATP; assay: switch fluorescence ratio, 500 uM ATP over buffer (Cy3 cluster intensity, sum of 5 cycles each) (fold (ratio)); higher = stronger signal-on switching upon ATP binding; sequences stand for … in TCGTCGGCAGCGTCAGATGTGTATAAGAGACAGTTTTTTTTTTTTTTTTTTTTTTTTT…TC; conditions: aptamer strand: ATP DNA aptamer (quencher-CACCTGGGGGAGTATTGCGGAGGAAGG + anchor), 100 nM annealed; ATP concentration: 500 uM
Outline: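 Clusters carrying Cy3-labelled switching strands on a modified Illumina MiSeq flow-cell were annealed to 100 nM quencher-labelled ATP aptamer and imaged in selection buffer. They were imaged again after 15 min with 500 uM ATP at 22 °C, over five buffer/ATP cycles with NaOH stripping and re-annealing in between. For each cluster, the fluorescence ratio is the summed Cy3 intensity of the target cycles divided by that of the buffer cycles, averaged per switch-domain sequence. Clusters outside 100-1000 RFU were left out.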
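Further: ATP exposure 15 min at 22 °C before imaging.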

Sequence | switch fluorescence ratio
TTTATACCTA | 1.03 ± 0.023
TTTATACCTT | 1.07 ± 0.1
TTTATATAAT | 0.984 ± 0.038
TTTATATGTT | 1.03 ± 0.04
TTTATCAATT | 0.991 ± 0.063
TTTATCAGTT | 0.951 ± 0.035
TTTATCCGCC | 1.77 ± 0.21
TTTATCCGCG | 1.25 ± 0.25
TTTATCGAGC | 1.02 ± 0.027
TTTATCGGTA | 1.01 ± 0.03
TTTATCGTGG | 0.9721 ± 0.002
TTTATCTGAA | 0.9783 ± 0.0017
TTTATCTTGG | 1.02 ± 0.038
TTTATGAAAG | 0.97 ± 0.05
TTTATGAAGC | 1.06 ± 0.076
TTTATGAGTG | 0.997 ± 0.031
TTTATGCACC | 1.07 ± 0.017
TTTATGCCGG | 1.01 ± 0.029
TTTATGGGGG | 0.999 ± 0.034
TTTATGTGGG | 1.05 ± 0.12
TTTATTAGCA | 0.968 ± 0.05
TTTATTATGT | 0.994 ± 0.034
TTTATTCGGC | 1.02 ± 0.065
TTTATTCGGT | 1.01 ± 0.074
TTTATTCTAA | 0.976 ± 0.02

Sequence | switch fluorescence ratio
TTTATTGAGC | 0.989 ± 0.039
TTTATTGAGG | 1.03 ± 0.011
TTTATTGGGA | 1.07 ± 0.13
TTTATTGTAA | 0.991 ± 0.031
TTTATTGTGC | 1.03 ± 0.054
TTTATTTGCA | 0.9545 ± 0.0068
TTTATTTGTA | 0.99 ± 0.035
TTTATTTGTC | 0.992 ± 0.053
TTTATTTTAT | 1.02 ± 0.057
TTTATTTTCA | 0.9924 ± 0.0046
TTTCAAAAAC | 1.03 ± 0.037
TTTCAAACCC | 0.995 ± 0.013
TTTCAAATTG | 0.973 ± 0.028
TTTCAATGGA | 0.974 ± 0.018
TTTCACTTGG | 1.03 ± 0.027
TTTCAGAAAT | 1.91 ± 1.6
TTTCAGAACT | 1.0027 ± 0.00088
TTTCAGAGTT | 0.993 ± 0.033
TTTCAGTCTA | 1.03 ± 0.024
TTTCAGTTCC | 1.08 ± 0.002
TTTCATACGT | 1.02 ± 0.05
TTTCATAGC | 1.1 ± 0.065
TTTCATATGG | 0.994 ± 0.024
TTTCATCCTG | 1.0331 ± 0.00038
TTTCATCTCT | 1 ± 0.04

Sequence | switch fluorescence ratio
TTTCATGGGT | 1 ± 0.018
TTTCATTATC | 1.02 ± 0.016
TTTCATTGTA | 1.01 ± 0.013
TTTCCACAT | 0.9719 ± 0.0091
TTTCCAGCGT | 1.03 ± 0.036
TTTCCAGGCA | 1.03 ± 0.0051
TTTCCAGGG | 1.17 ± 0.031
TTTCCAGGGA | 1.034 ± 0.0029
TTTCCAGTAA | 1.036 ± 0.0068
TTTCCCAGGA | 1.13 ± 0.038
TTTCCCCTTT | 1.08 ± 0.15
TTTCCCTGGT | 1.12 ± 0.11
TTTCCGCGGA | 0.97 ± 0.024
TTTCCGGAAT | 1.661 ± 0.011
TTTCCGGTTT | 1.6 ± 1.1
TTTCCGTTGG | 1.12 ± 0.17
TTTCCTCCCT | 1.84 ± 0.5
TTTCCTGAGG | 0.991 ± 0.016
TTTCCTGGAT | 1.04 ± 0.052
TTTCCTGGCG | 1.024 ± 0.0089
TTTCCTTGCT | 1.49 ± 0.59
TTTCGAAACG | 1.12 ± 0.21
TTTCGAAATG | 1.01 ± 0.027
TTTCGAATTG | 0.975 ± 0.019
TTTCGAATTT | 1.02 ± 0.04

Sequence | switch fluorescence ratio
TTTCGACGTT | 0.99 ± 0.011
TTTCGAGGCT | 0.976 ± 0.019
TTTCGATAGG | 0.979 ± 0.034
TTTCGCATGA | 1.223 ± 0.006
TTTCGCATTT | 1.14 ± 0.013
TTTCGCCAGA | 1.03 ± 0.0044
TTTCGCCCCT | 1.1 ± 0.062
TTTCGCGATT | 2.32 ± 1.7
TTTCGGAACC | 1.2 ± 0.22
TTTCGGAAGG | 0.988 ± 0.025
TTTCGGAGAG | 0.989 ± 0.037
TTTCGGATCA | 0.9334 ± 0.0044
TTTCGGATGG | 1.03 ± 0.057
TTTCGGCATT | 2.4 ± 1.9
TTTCGGGATT | 1 ± 0.012
TTTCGGGCGG | 0.999 ± 0.038
TTTCGGGGTA | 1 ± 0.045
TTTCGGGGTT | 1.04 ± 0.1
TTTCGGGTGC | 1.05 ± 0.056
TTTCGGTAGT | 0.995 ± 0.026
TTTCGTATTT | 0.992 ± 0.046
TTTCGTCTGG | 0.955 ± 0.062
TTTCGTGGGA | 0.999 ± 0.04
TTTCGTTATT | 1.34 ± 0.73
TTTCGTTTTA | 0.996 ± 0.033

Sequence | switch fluorescence ratio
TTTCTAAGGA | 0.978 ± 0.017
TTTCTAGAGA | 1 ± 0.021
TTTCTAGCGG | 1.01 ± 0.054
TTTCTAGGTG | 2.06 ± 0.23
TTTCTATGCG | 0.959 ± 0.025
TTTCTCAGTG | 0.969 ± 0.011
TTTCTGACGG | 1.35 ± 0.58
TTTCTGGTAA | 1.08 ± 0.034
TTTCTGGTCG | 0.964 ± 0.019
TTTCTGGTGC | 1.16 ± 0.085
TTTCTGGTTG | 1.022 ± 0.0078
TTTCTGTACG | 1.1 ± 0.068
TTTCTGTGCG | 1.001 ± 0.0072
TTTCTGTTCG | 0.989 ± 0.024
TTTCTTCCAT | 1.05 ± 0.1
TTTCTTGGGC | 1.007 ± 0.0018
TTTCTTGGTA | 1.02 ± 0.024
TTTCTTGGTT | 0.991 ± 0.016
TTTCTTTGTT | 1.04 ± 0.096
TTTGAAAATT | 0.99 ± 0.06
TTTGAAAGGC | 1.76 ± 1.1
TTTGAAAGGT | 1.04 ± 0.072
TTTGAAAGTG | 0.999 ± 0.015
TTTGAAATTT | 1.006 ± 0.0096
TTTGAACGTT | 1 ± 0.037

Sequence | switch fluorescence ratio
TTTGAAGGGT | 1.0199 ± 0.00081
TTTGAAGGTG | 1.45 ± 0.17
TTTGAATATA | 0.985 ± 0.022
TTTGAATGAT | 0.984 ± 0.015
TTTGAATGGA | 1 ± 0.012
TTTGAATTAC | 1.17 ± 0.062
TTTGAATTAG | 1 ± 0.039
TTTGAATTGG | 0.996 ± 0.017
TTTGAATTTA | 1 ± 0.039
TTTGACAGCC | 1.06 ± 0.042
TTTGACGGGG | 1.04 ± 0.096
TTTGACTTAG | 1.02 ± 0.043
TTTGACTTTA | 1.003 ± 0.0029
TTTGAGAAAT | 0.994 ± 0.029
TTTGAGATTT | 0.9974 ± 0.009
TTTGAGGATA | 1.07 ± 0.021
TTTGAGGGGA | 1 ± 0.011
TTTGAGGGGC | 0.995 ± 0.024
TTTGAGGTAA | 1.008 ± 0.0083
TTTGAGGTCC | 1 ± 0.07
TTTGAGGTGC | 1.06 ± 0.031
TTTGAGTATT | 0.992 ± 0.047
TTTGAGTGCT | 0.997 ± 0.029
TTTGAGTTAA | 0.994 ± 0.037
TTTGAGTTGG | 1 ± 0.02

Sequence | switch fluorescence ratio
TTTGATAATA | 1.02 ± 0.056
TTTGATACCA | 1.005 ± 0.0051
TTTGATAGGA | 0.975 ± 0.02
TTTGATATCC | 1 ± 0.017
TTTGATATGC | 1.116 ± 0.0054
TTTGATATTC | 0.971 ± 0.022
TTTGATCCTG | 0.9711 ± 0.0081
TTTGATCTGT | 0.984 ± 0.012
TTTGATGGGA | 1.025 ± 0.0068
TTTGATGGTA | 0.943 ± 0.026
TTTGATTCAC | 1.02 ± 0.041
TTTGATTGAA | 0.975 ± 0.03
TTTGATTGGT | 0.99 ± 0.038
TTTGATTTAC | 1 ± 0.028
TTTGATTTCG | 1.01 ± 0.024
TTTGCAAAGG | 1.007 ± 0.0022
TTTGCACAGT | 1.01 ± 0.021
TTTGCACATT | 1.02 ± 0.069
TTTGCACGTA | 0.991 ± 0.084
TTTGCAGAAA | 0.996 ± 0.018
TTTGCAGAAT | 1.006 ± 0.0094
TTTGCAGACA | 1.01 ± 0.027
TTTGCAGGGG | 1.06 ± 0.1
TTTGCAGTTT | 0.997 ± 0.024
TTTGCATGCT | 1.024 ± 0.0036

Sequence | switch fluorescence ratio
TTTGCATTAG | 1.11 ± 0.028
TTTGCATTCA | 0.999 ± 0.038
TTTGCCAGAC | 1.23 ± 0.24
TTTGCCCTTT | 1.24 ± 0.32
TTTGCCGCGT | 1.03 ± 0.012
TTTGCCTGAC | 1.57 ± 0.37
TTTGCGAGAG | 1.01 ± 0.045
TTTGCGATTT | 1.15 ± 0.14
TTTGCGGCGT | 0.986 ± 0.022
TTTGCGGTTT | 1.02 ± 0.046
TTTGCGTTGT | 1.022 ± 0.0061
TTTGCTCAGG | 1.09 ± 0.037
TTTGCTGGAT | 1.08 ± 0.046
TTTGCTTTCC | 1.2 ± 0.17
TTTGCTTTGT | 1.01 ± 0.023
TTTGGAACAT | 1.01 ± 0.042
TTTGGAATTG | 0.988 ± 0.016
TTTGGAATTT | 1.06 ± 0.1
TTTGGACAAG | 1 ± 0.061
TTTGGACTGG | 1.01 ± 0.067
TTTGGACTGT | 0.988 ± 0.019
TTTGGAGACT | 1.03 ± 0.02
TTTGGATGTG | 0.984 ± 0.032
TTTGGCACGC | 1.11 ± 0.04
TTTGGCAGGT | 1.03 ± 0.026
